# Read-outs that look alike come from different tables or passages of the source.
# Assays:
# [1] = target: OmpX_(1,149), double-cysteine variant of outer membrane protein X, labeled with FRET donor and acceptor dyes, unfolded (uOmpX) (UniProt P0A917); experiment: single-molecule FRET (smFRET) titration, intramolecular FRET of labeled uOmpX; as the titration at 37 °C, but at 25 °C: 20 pM labeled uOmpX in buffer with Skp3 or SurA; 20 mM Tris-HCl pH 8.0, 150 mM NaCl; Hill coefficient set to 1 (Skp3) and 1.5 (SurA)
# [2] = target: OmpX_(1,149), double-cysteine variant of outer membrane protein X, labeled with FRET donor and acceptor dyes, unfolded (uOmpX) (UniProt P0A917); experiment: single-molecule FRET (smFRET) titration, intramolecular FRET of labeled uOmpX; global analysis of FRET efficiency distributions at different chaperone concentrations and temperatures (25, 31, 37 °C); ΔH and ΔS from the temperature dependence of Ka; errors by bootstrapping
# [3] = target: OmpX_(1,149), double-cysteine variant of outer membrane protein X, labeled with FRET donor and acceptor dyes, unfolded (uOmpX) (UniProt P0A917); experiment: single-molecule FRET (smFRET) titration, intramolecular FRET of labeled uOmpX; 20 pM labeled uOmpX diluted from 6 M GdmCl into buffer with chaperone (Skp3 from 0.5 nM to 2.5 µM; SurA 46 nM to 25 µM); 20 mM Tris-HCl pH 8.0, 150 mM NaCl, 6 mM GdmCl, 87.5 nM LDAO; 37 °C; bound fraction from three Gaussian distributions; Hill coefficient set to 1 (Skp3) and 1.5 (SurA)
# [4] = target: OmpX_(1,149), double-cysteine variant of outer membrane protein X, labeled with FRET donor and acceptor dyes, unfolded (uOmpX) (UniProt P0A917); experiment: as above; remark: listed apart in the source
# [5] = target: OmpX_(1,149), double-cysteine variant of outer membrane protein X, labeled with FRET donor and acceptor dyes, unfolded (uOmpX) (UniProt P0A917); experiment: single-molecule FRET (smFRET) titration, intramolecular FRET of labeled uOmpX; global analysis of FRET efficiency distributions at different chaperone concentrations and temperatures (25, 31, 37 °C); ΔH and ΔS from the temperature dependence of Ka; errors by bootstrapping; remark: listed apart in the source
Molecule,Kd [1] [nM],c1/2 (inverse of Ka) [1] [nM],dH [2] [kcal/mol],Kd [3] [nM],c1/2 (inverse of Ka) [3] [nM],percent of uOmpX molecules bound at ~6 µM SurA [3] [%],Kd [4] [nM],c1/2 (inverse of Ka) [4] [nM],percent of uOmpX molecules bound at 2.5 µM Skp3 [4] [%],dH [5] [kcal/mol]
survival factor A (SurA) (from UniProt P0ABZ6 21-428) (natural protein),1000,103,-31.5,8200,407,87,–,–,–,–
"17-kilodalton protein (Skp), trimer (Skp3) (natural protein) ADKIAIVNMGSLFQQVAQKTGVSNTLENEFKGRASELQRMETDLQAKMKKLQSMKAGSDRTKLEKDVMAQRQTFAQKAQAFEQDRARRSNEERGKLVTRIQTAVKSVANSQDIDLVVDANAVAYNSSDVKDITADVLKQVK",3.6,3.55,–,–,–,–,359,359,80,-71.2

# — PMC8892499
